In patent US7045613 (Amgen, dated 2006):

T1: Human IKK-α containing an N-terminal Flag epitope tag (human, UniProt O15111 1-745)
T1 construct: Transiently expressed in 293 cells for coimmunoprecipitation; also called IκB Kinase
T1 sequence: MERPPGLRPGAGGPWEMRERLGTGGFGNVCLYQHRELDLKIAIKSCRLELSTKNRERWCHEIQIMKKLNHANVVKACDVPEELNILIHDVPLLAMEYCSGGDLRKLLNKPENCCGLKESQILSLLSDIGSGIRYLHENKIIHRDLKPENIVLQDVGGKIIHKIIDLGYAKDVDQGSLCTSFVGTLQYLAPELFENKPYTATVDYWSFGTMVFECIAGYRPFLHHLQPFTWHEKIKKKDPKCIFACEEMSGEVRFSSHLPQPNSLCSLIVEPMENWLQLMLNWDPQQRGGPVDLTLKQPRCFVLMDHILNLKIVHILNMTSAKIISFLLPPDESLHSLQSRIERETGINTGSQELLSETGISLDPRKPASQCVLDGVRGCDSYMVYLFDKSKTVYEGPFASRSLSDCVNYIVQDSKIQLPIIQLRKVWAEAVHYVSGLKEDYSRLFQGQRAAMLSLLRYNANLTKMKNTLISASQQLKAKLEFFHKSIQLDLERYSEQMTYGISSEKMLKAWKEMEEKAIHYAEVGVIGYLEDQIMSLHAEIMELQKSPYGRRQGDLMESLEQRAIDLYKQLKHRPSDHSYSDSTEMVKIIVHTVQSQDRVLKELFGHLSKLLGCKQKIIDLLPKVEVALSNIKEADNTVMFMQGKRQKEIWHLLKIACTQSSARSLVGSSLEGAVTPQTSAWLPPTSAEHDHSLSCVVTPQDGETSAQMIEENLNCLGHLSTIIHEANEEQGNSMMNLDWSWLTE

B1: HA epitope-tagged TRAF2 (other, UniProt Q12933 1-501, looked up, not shown: small tags and cut ends)
chain: MAAASVTPPGSLELLQPGFSKTLLGTKLEAKYLCSACRNVLRRPFQAQCGHRYCSFCLASILSSGPQNCAACVHEGIYEEGISILESSSAFPDNAARREVESLPAVCPSDGCTWKGTLKEYESCHEGRCPLMLTECPACKGLVRLGEKERHLEHECPERSLSCRHCRAPCCGADVKAHHEVCPKFPLTCDGCGKKKIPREKFQDHVKTCGKCRVPCRFHAIGCLETVEGEKQQEHEVQWLREHLAMLLSSVLEAKPLLGDQSHAGSELLQRCESLEKKTATFENIVCVLNREVERVAMTAEACSRQHRLDQDKIEALSSKVQQLERSIGLKDLAMADLEQKVLEMEASTYDGVFIWKISDFARKRQEAVAGRIPAIFSPAFYTSRYGYKMCLRIYLNGDGTGRGTHLSLFFVVMKGPNDALLRWPFNQKVTLMLLDQNNREHVIDAFRPDVTSSSFQRPVNDMNIASGCPLFCPVSKMEAKNSYVRDDAIFIKAIVDLTGL
notes: Transiently coexpressed in 293 cells
B2: HA epitope-tagged TRAF3 (other, UniProt Q13114 1-568, looked up, not shown: small tags and cut ends)
chain: MESSKKMDSPGALQTNPPLKLHTDRSAGTPVFVPEQGGYKEKFVKTVEDKYKCEKCHLVLCSPKQTECGHRFCESCMAALLSSSSPKCTACQESIVKDKVFKDNCCKREILALQIYCRNESRGCAEQLMLGHLLVHLKNDCHFEELPCVRPDCKEKVLRKDLRDHVEKACKYREATCSHCKSQVPMIALQKHEDTDCPCVVVSCPHKCSVQTLLRSELSAHLSECVNAPSTCSFKRYGCVFQGTNQQIKAHEASSAVQHVNLLKEWSNSLEKKVSLLQNESVEKNKSIQSLHNQICSFEIEIERQKEMLRNNESKILHLQRVIDSQAEKLKELDKEIRPFRQNWEEADSMKSSVESLQNRVTELESVDKSAGQVARNTGLLESQLSRHDQMLSVHDIRLADMDLRFQVLETASYNGVLIWKIRDYKRRKQEAVMGKTLSLYSQPFYTGYFGYKMCARVYLNGDGMGKGTHLSLFFVIMRGEYDALLPWPFKQKVTLMLMDQGSSRRHLGDAFKPDPNSSSFKKPTGEMNIASGCPVFVAQTVLENGTYIKDDTIFIKVIVDTSDLPDP
notes: as for B1

Target: T1, Human IKK-α containing an N-terminal …
Assay: coimmunoprecipitation from 293 cell lysates, anti-Flag IP, anti-HA immunoblot
Text: Human IKK-α containing an N-terminal Flag epitope tag was transiently coexpressed in 293 human embryonic kidney cells with Myc epitope-tagged NIK or HA epitope-tagged TRAF proteins. Cell lysates were immunoprecipitated using a monoclonal antibody against the Flag epitope, and coprecipitating NIK or TRAF proteins were detected by immunoblot analysis with an anti-Myc or anti-HA monoclonal antibodies.

Binder	binding result
B1	no binding
B2	no binding
